In paper PMC6210165, “Structure-Based Engineering of Phanerochaete chrysosporium Alcohol Oxidase for Enhanced Oxidative Power toward Glycerol” (Biochemistry, 2018):

B1: PcAOX (His-SUMO-PcAOX) (Phanerodontia chrysosporium) (protein)
chain: MGHPEEVDVIVCGGGPAGCVVAGRLAYADPTLKVMLIEGGANNRDDPWVYRPGIYVRNMQRNGINDKATFYTDTMASSYLRGRRSIVPCANILGGGSSINFQMYTRASASDWDDFKTEGWTCKDLLPLMKRLENYQKPCNNDTHGYDGPIAISNGGQIMPVAQDFLRAAHAIGVPYSDDIQDLTTAHGAEIWAKYINRHTGRRSDAATAYVHSVMDVQDNLFLRCNARVSRVLFDDNNKAVGVAYVPSRNRTHGGKLHETIVKARKMVVLSSGTLGTPQILERSGVGNGELLRQLGIKIVSDLPGVGEQYQDHYTTLSIYRVSNESITTDDFLRGVKDVQRELFTEWEVSPEKARLSSNAIDAGFKIRPTEEELKEMGPEFNELWNRYFKDKPDKPVMFGSIVAGAYADHTLLPPGKYITMFQYLEYPASRGKIHIKSQNPYVEPFFDSGFMNNKADFAPIRWSYKKTREVARRMDAFRGELTSHHPRFHPASPAACKDIDIETAKQIYPDGLTVGIHMGSWHQPSEPYKHDKVIEDIPYTEEDDKAIDDWVADHVETTWHSLGTCAMKPREQGGVVDKRLNVYGTQNLKCVDLSICPDNLGTNTYSSALLVGEKGADLIAEELGLKIKTPHAPVPHAPVPTGRPATQQVR
notes: codon-optimized, E. coli BL21(DE3); N-terminal His-SUMO fusion kept for all kinetics, tag cleaved for crystals; homo-octamer with FAD; residues 2-645 seen in structure
B2: PcAOX (His-SUMO-PcAOX) (Phanerodontia chrysosporium; F101N) (protein)
chain: MGHPEEVDVIVCGGGPAGCVVAGRLAYADPTLKVMLIEGGANNRDDPWVYRPGIYVRNMQRNGINDKATFYTDTMASSYLRGRRSIVPCANILGGGSSINNQMYTRASASDWDDFKTEGWTCKDLLPLMKRLENYQKPCNNDTHGYDGPIAISNGGQIMPVAQDFLRAAHAIGVPYSDDIQDLTTAHGAEIWAKYINRHTGRRSDAATAYVHSVMDVQDNLFLRCNARVSRVLFDDNNKAVGVAYVPSRNRTHGGKLHETIVKARKMVVLSSGTLGTPQILERSGVGNGELLRQLGIKIVSDLPGVGEQYQDHYTTLSIYRVSNESITTDDFLRGVKDVQRELFTEWEVSPEKARLSSNAIDAGFKIRPTEEELKEMGPEFNELWNRYFKDKPDKPVMFGSIVAGAYADHTLLPPGKYITMFQYLEYPASRGKIHIKSQNPYVEPFFDSGFMNNKADFAPIRWSYKKTREVARRMDAFRGELTSHHPRFHPASPAACKDIDIETAKQIYPDGLTVGIHMGSWHQPSEPYKHDKVIEDIPYTEEDDKAIDDWVADHVETTWHSLGTCAMKPREQGGVVDKRLNVYGTQNLKCVDLSICPDNLGTNTYSSALLVGEKGADLIAEELGLKIKTPHAPVPHAPVPTGRPATQQVR
notes: as for B1
B3: PcAOX (His-SUMO-PcAOX) (Phanerodontia chrysosporium; F101S) (protein)
chain: MGHPEEVDVIVCGGGPAGCVVAGRLAYADPTLKVMLIEGGANNRDDPWVYRPGIYVRNMQRNGINDKATFYTDTMASSYLRGRRSIVPCANILGGGSSINSQMYTRASASDWDDFKTEGWTCKDLLPLMKRLENYQKPCNNDTHGYDGPIAISNGGQIMPVAQDFLRAAHAIGVPYSDDIQDLTTAHGAEIWAKYINRHTGRRSDAATAYVHSVMDVQDNLFLRCNARVSRVLFDDNNKAVGVAYVPSRNRTHGGKLHETIVKARKMVVLSSGTLGTPQILERSGVGNGELLRQLGIKIVSDLPGVGEQYQDHYTTLSIYRVSNESITTDDFLRGVKDVQRELFTEWEVSPEKARLSSNAIDAGFKIRPTEEELKEMGPEFNELWNRYFKDKPDKPVMFGSIVAGAYADHTLLPPGKYITMFQYLEYPASRGKIHIKSQNPYVEPFFDSGFMNNKADFAPIRWSYKKTREVARRMDAFRGELTSHHPRFHPASPAACKDIDIETAKQIYPDGLTVGIHMGSWHQPSEPYKHDKVIEDIPYTEEDDKAIDDWVADHVETTWHSLGTCAMKPREQGGVVDKRLNVYGTQNLKCVDLSICPDNLGTNTYSSALLVGEKGADLIAEELGLKIKTPHAPVPHAPVPTGRPATQQVR
notes: as for B1

Key:
Details in all cases: 50 mM potassium phosphate pH 7.5, 25 °C, co-substrate O2, fit errors ≤11%
purified protein = substrate: CCO; assay: purified protein
[1] = substrate: CCCO; assay: HRP-coupled H2O2 assay, steady-state kinetics; type: biochemical, Phanerodontia chrysosporium
From the text: (§1) HRP-coupled H2O2 assay, steady-state kinetics on PcAOX (His-SUMO-PcAOX)

[2] = substrate: CO; assay: HRP-coupled H2O2 assay, steady-state kinetics; type: biochemical, Phanerodontia chrysosporium
From the text: as §1

| Protein | Km (purified protein) | kcat (purified protein) | kcat/Km (purified protein) | Km [1] | kcat [1] | kcat/Km [1] | Km [2] | kcat [2] | kcat/Km [2] |
| --- | --- | --- | --- | --- | --- | --- | --- | --- | --- |
| B1 | 15 mM | 19 s⁻¹ | 1300 M⁻¹ s⁻¹ | 45 mM | 11 s⁻¹ | 240 M⁻¹ s⁻¹ | 2 mM | 18 s⁻¹ | 9000 M⁻¹ s⁻¹ |
| B2 | 11 mM | 10 s⁻¹ | 910 M⁻¹ s⁻¹ | 11 mM | 12 s⁻¹ | 1100 M⁻¹ s⁻¹ | 14 mM | 10 s⁻¹ | 710 M⁻¹ s⁻¹ |
| B3 | 1 mM | 5 s⁻¹ | 5000 M⁻¹ s⁻¹ | 4 mM | 7 s⁻¹ | 1800 M⁻¹ s⁻¹ | 2 mM | 18 s⁻¹ | 9000 M⁻¹ s⁻¹ |
